Patent US20260152561A1

Tests used:
[1] = molecular target: MICA/MICB on tumor cells (MGC-803, U2OS); test: cell-based or functional assay
[2] = molecular target: PD-L1 on tumor cells (EMT6-PD-L1, U2OS) (UniProt Q9NZQ7); test: cell-based or functional assay
Chain of UniProt Q9NZQ7 (Q9NZQ7 19-290 limits assumed): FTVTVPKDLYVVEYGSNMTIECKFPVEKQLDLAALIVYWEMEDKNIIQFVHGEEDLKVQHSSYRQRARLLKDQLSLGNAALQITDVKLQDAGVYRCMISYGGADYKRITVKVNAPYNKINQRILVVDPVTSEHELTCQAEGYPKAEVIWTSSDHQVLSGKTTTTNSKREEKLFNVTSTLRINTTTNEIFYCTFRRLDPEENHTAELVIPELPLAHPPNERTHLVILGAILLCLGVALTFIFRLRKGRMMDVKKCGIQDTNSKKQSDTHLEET

In the case of “dual-targeting chimeric antigen receptor PD1-DAP10-41BB-P2A-NKG2D-IgG4-CD28-41BB-CD3ζ, expressed on NK92 cells (PN-CAR-NK92)”, the cytotoxicity (luciferase killing assay, effector-to-target ratio 5:1) on U2OS cells [1] is reported as 6 fold and the cytotoxicity (luciferase killing assay, effector-to-target ratio 5:1) on U2OS cells [2] is reported as 6 fold.
